In patent publication US20170042979A1:

Target: soluble form of cation-independent mannose-6-phosphate receptor (lacking the membrane anchor sequence)
Test: SPR (Biacore), soluble CIMPR immobilised on dextran chip, analyte flowed at 20 µL/min, RU after 3 min less control cell

In the case of “α-galactosidase conjugated to 10 kDa 4-arm dendrimer (star) hydrazide PEG (Hz4PEG), prepared with 10% w/v PEG (from UniProt P06280 32-429) (enzyme)”, the fold higher concentration needed for the same change in RU, against unmodified α-galactosidase was 10 fold.
